Results published in article PMC11548876.

What was measured:
[1] = molecular target: CcBurs-α (Cacopsylla chinensis); assay: non-reduced versus reduced SDS-PAGE with western blot; His-tagged subunits expressed separately or co-expressed in HEK293T, collected from the medium and purified on Ni-NTA; 12% SDS-PAGE (non-reduced) and 15% SDS-PAGE (reduced), anti-His blot
[2] = molecular target: CcBurs-β (Cacopsylla chinensis); assay: as above

| Substance | stoichiometry N [1] | stoichiometry N [2] |
| --- | --- | --- |
| CcBurs-α (natural protein) | 2 |  |
| CcBurs-β (natural protein) |  | 2 |
